Legend:
[1] = target: APLF^AD labelled with the fluorescent tag NT-647 (human) (UniProt Q8IW19); experiment: MST
[2] = target: APLF acidic domain (APLF^AD), Homo sapiens APLF residues 450-511, wild type (human) (UniProt Q8IW19); experiment: cross-linking
APLF acidic domain (APLF^AD), Homo sapiens APLF residues 450-511, wild type (human), sequence (Q8IW19 450-511): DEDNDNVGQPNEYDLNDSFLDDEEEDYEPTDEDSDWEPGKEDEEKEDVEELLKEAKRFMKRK

APLF^AD labelled with the fluorescent tag NT-647 (human), sequence (Q8IW19 450-511): as above

| KD of the secondary binding over KD of the high-affinity binding (fold) [1] [fold] | KD,1 (high-affinity binding event, sequential-binding model) [1] [nM] | stoichiometry N [2] | Substance |
| --- | --- | --- | --- |
| 50 | 1400 | – | (H3-H4)2 histone tetramer from Drosophila melanogaster (from UniProt P02299 2-136; P84040 2-103) (complex) |
| – | 800 | 1 | H2A-H2B histone dimer from Drosophila melanogaster (from UniProt P84051 2-121; P02283 2-123) (complex) |

Reference: article PMC6101569
